Laboratory results: PMC12784962, “https://orcid.org/0000-0002-3633-7823 Baral Joydeep Department of Bioscience and Biotechnology, Indian Institute of Technology Kharagpur, West Midnapore 721302, West Bengal, India”

Biological target: the molecule itself
Test: cryo-EM structure; monomer to monomer within the homodimer; 5 µM mKu dimer with equimolar 40-bp linear dsDNA or short hairpin DNA, 30 min at 4°C

B1: mycobacterial Ku (mKu), Mycobacterium tuberculosis, wild type (natural protein)
chain: MRAIWTGSIAFGLVNVPVKVYSATADHDIRFHQVHAKDNGRIRYKRVCEACGEVVDYRDLARAYESGDGQMVAITDDDIASLPEERSREIEVLEFVPAADVDPMMFDRSYFLEPDSKSSKSYVLLAKTLAETDRMAIVHFTLRNKTRLAALRVKDFGKREVMMVHTLLWPDEIRDPDFPVLDQKVEIKPAELKMAGQVVDSMADDFNPDRYHDTYQEQLQELIDTKLEGGQAFTAEDQPRLLDEPEDVSDLLAKLEASVKARSKANSNVPTPP
notes: Ku protein of Mycobacterium tuberculosis, gene Rv0937c, 31 kDa; the C-terminal 46 residues are not seen in the maps; also called mKu WT; mKu-WT
B1: binds.
